# Test results from patent US20240132578A1.
# What was measured:
# Assay in all cases: cell-based or functional assay
# [1] = target: HIV-1 92UG024 envelope protein (Env) on pseudovirus (HIV-1)
# [2] = target: HIV-1 Env of isolate 92UG024 (pseudovirus) (HIV-1)
# [3] = target: HIV-1 Env of isolate MGRM-A-010 (subtype A) (HIV-1)
# [4] = target: HIV-1 Env of isolate MGRM-AE-001 (subtype AE) (HIV-1)
# [5] = target: HIV-1 Env of isolate MGRM-D-002 (pseudovirus) (HIV-1)
# [6] = target: HIV-1 Env of isolate MGRM-D-005 (pseudovirus) (HIV-1)
# [7] = target: HIV-1 Env of isolate MGRM-D-013 (pseudovirus) (HIV-1)
# [8] = target: HIV-1 Env of isolate MGRM-D-018 (pseudovirus) (HIV-1)
# [9] = target: HIV-1 Env of isolate MGRM-D-021 (pseudovirus) (HIV-1)
# [10] = target: HIV-1 Env of isolate MGRM-D-026 (HIV-1)
# [11] = target: HIV-1 Env of isolate MGRM-F1-018 (HIV-1)
# [12] = target: HIV-1 Env of isolate MGRM-F1-020 (HIV-1)
# [13] = target: HIV-1 Env of pseudovirus isolate MGRM-C-010 (clade C) (HIV-1)
# [14] = target: HIV-1 Env of pseudovirus isolate MGRM-C-022 (clade C) (HIV-1)
# [15] = target: HIV-1 Env of pseudovirus isolate MGRM-C-025 (clade C) (HIV-1)
# [16] = target: HIV-1 MGRM-D-018 envelope protein (Env) on pseudovirus (HIV-1)
# [17] = target: HIV-1 envelope glycoprotein (Env) of isolate MG RM-AG-001 (HIV-1)
# [18] = target: HIV-1 envelope glycoprotein (Env) of isolate MG RM-AG-002 (HIV-1)
# [19] = target: HIV-1 Env of isolate MGRM-AG-013 (pseudovirus) (HIV-1)
# [20] = target: HIV-1 Env of isolate MGRM-G-001 (subtype G) (HIV-1)
# [21] = target: HIV-1 Env of isolate MGRM-G-011 (subtype G) (HIV-1)
# [22] = target: HIV-1 Env of isolate MGRM-G-028 (subtype G) (HIV-1)
# [23] = target: HIV-1 Env of isolate 93RW029 (clade A pseudovirus) (HIV-1)
# [24] = target: HIV-1 Env of isolate APV_17, clade B (HIV-1)
# [25] = target: HIV-1 Env of isolate MGRM-Chronic-B-002, clade B (HIV-1)
# [26] = target: HIV-1 Env of isolate MGRM-D-019 (clade D pseudovirus) (HIV-1)
# [27] = target: HIV-1 Env of pseudovirus MGRM-F1-014 (clade F) (HIV-1)
# [28] = target: HIV-1 Env of pseudovirus MGRM-F1-015 (clade F) (HIV-1)
# [29] = target: HIV-1 Env of pseudovirus MGRM-F1-020 (clade F) (HIV-1)
# [30] = target: HIV-1 Env of pseudovirus MGRM-F1-021 (clade F) (HIV-1)
# [31] = target: HIV-1 IAVI-C18 envelope (Env) on pseudovirus (HIV-1)
# [32] = target: HIV-1 MGRM-G-006 Env (pseudovirus) (HIV-1)
# [33] = target: HIV-1 envelope glycoprotein (Env) of isolate MGRM-C-020 (HIV-1)
# [34] = target: envelope of aMLV pseudovirus (negative control)
# Sequence of 5329_C19 (PGT-136) (antibody) (VH): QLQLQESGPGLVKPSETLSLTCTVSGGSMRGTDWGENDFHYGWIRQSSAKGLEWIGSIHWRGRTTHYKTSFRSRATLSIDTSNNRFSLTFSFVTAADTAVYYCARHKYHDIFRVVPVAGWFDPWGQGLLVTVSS
# Sequence of 5329_C19 (PGT-136) (antibody) (VL): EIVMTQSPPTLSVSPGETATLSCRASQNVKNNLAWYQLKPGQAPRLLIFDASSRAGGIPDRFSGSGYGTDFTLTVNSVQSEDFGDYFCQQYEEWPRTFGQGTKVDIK
# Sequence of 5345_I01 (PGT-137) (antibody) (VH): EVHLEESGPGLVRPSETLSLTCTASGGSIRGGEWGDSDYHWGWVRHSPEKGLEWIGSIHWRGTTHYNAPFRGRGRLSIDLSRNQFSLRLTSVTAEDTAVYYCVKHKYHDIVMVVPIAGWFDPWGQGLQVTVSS
# Sequence of 5345_I01 (PGT-137) (antibody) (VL): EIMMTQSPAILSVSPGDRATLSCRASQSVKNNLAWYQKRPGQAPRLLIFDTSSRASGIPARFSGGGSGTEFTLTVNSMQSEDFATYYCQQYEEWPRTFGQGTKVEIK
# Sequence of PGT-144 (4970_K22) (antibody) (VH): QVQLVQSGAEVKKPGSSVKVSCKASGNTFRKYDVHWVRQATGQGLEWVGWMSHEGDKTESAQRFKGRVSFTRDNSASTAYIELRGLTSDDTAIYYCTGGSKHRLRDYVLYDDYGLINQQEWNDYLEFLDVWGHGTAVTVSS
# Sequence of PGT-144 (4970_K22) (antibody) (VL): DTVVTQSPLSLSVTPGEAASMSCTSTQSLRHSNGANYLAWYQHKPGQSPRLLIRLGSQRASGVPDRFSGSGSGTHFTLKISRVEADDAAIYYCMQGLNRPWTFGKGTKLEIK
# Sequence of PGT-145 (4995_P16) (antibody) (VH): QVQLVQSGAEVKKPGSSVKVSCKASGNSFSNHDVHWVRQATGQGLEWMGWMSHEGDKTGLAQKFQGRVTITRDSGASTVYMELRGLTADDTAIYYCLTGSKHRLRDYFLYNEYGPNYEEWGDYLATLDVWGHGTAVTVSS
# Sequence of PGT-145 (4995_P16) (antibody) (VL): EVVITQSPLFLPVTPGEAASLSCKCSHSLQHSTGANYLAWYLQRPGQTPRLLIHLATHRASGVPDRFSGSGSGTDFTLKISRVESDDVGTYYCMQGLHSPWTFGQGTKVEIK
# Sequence of PGT-142 (4995_E20) (antibody) (VH): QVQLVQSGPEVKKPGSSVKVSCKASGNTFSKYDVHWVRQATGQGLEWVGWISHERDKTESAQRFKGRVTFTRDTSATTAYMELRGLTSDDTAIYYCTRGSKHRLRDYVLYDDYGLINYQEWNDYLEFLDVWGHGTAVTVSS
# Sequence of PGT-142 (4995_E20) (antibody) (VL): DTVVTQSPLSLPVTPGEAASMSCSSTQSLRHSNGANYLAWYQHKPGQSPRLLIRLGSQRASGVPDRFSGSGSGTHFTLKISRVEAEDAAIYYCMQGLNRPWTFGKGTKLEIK
# Sequence of PGT-141 (4964_G22; 4993_K13) (antibody) (VH): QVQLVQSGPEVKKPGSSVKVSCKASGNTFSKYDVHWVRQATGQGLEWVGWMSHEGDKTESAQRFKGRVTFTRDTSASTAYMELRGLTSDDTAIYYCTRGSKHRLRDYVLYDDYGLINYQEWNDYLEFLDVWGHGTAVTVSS
# Sequence of PGT-143 (4980_N08) (antibody) (VH): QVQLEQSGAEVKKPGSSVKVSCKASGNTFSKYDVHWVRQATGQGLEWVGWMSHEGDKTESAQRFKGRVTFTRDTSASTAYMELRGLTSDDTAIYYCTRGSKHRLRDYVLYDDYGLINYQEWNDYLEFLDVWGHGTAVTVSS
# Sequence of PGT-143 (4980_N08) (antibody) (VL): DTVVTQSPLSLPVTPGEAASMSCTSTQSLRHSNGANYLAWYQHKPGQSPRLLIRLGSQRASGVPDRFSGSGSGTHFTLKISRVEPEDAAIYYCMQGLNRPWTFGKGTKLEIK
substance,measurement,setting,value
5329_C19 (PGT-136) (antibody),"IC50 (ug/mL), pseudovirus neutralization",[1],0.0915 µg/mL
same,"IC50 (µg/mL), pseudovirus neutralization",[2],0.052 µg/mL
same,"IC50, pseudovirus neutralization",[3],> 50 µg/mL
same,"IC50, pseudovirus neutralization",[4],> 50 µg/mL
same,"IC50 (µg/mL), pseudovirus neutralization",[5],> 50 µg/mL
same,"IC50 (µg/mL), pseudovirus neutralization",[6],> 50 µg/mL
same,"IC50 (µg/mL), pseudovirus neutralization",[7],> 50 µg/mL
same,"IC50 (µg/mL), pseudovirus neutralization",[8],> 50 µg/mL
same,"IC50 (µg/mL), pseudovirus neutralization",[9],> 50 µg/mL
same,"IC50 (µg/mL), pseudovirus neutralization",[10],> 50 µg/mL
same,"IC50 (µg/mL), pseudovirus neutralization",[11],> 50 µg/mL
same,"IC50 (µg/mL), pseudovirus neutralization",[12],9.31 µg/mL
same,"IC50, pseudovirus neutralization",[13],> 50 µg/mL
same,"IC50, pseudovirus neutralization",[14],> 50 µg/mL
same,"IC50, pseudovirus neutralization",[15],> 50 µg/mL
same,"IC50 (ug/mL), pseudovirus neutralization",[16],> 10 µg/mL
5345_I01 (PGT-137) (antibody),"IC50 (µg/mL), pseudovirus neutralization",[2],0.106 µg/mL
same,"IC50, pseudovirus neutralization",[3],> 50 µg/mL
same,"IC50, pseudovirus neutralization",[4],> 50 µg/mL
same,"IC50 (µg/mL), pseudovirus neutralization",[5],> 50 µg/mL
same,"IC50 (µg/mL), pseudovirus neutralization",[6],> 50 µg/mL
same,"IC50 (µg/mL), pseudovirus neutralization",[7],> 50 µg/mL
same,"IC50 (µg/mL), pseudovirus neutralization",[8],15.1 µg/mL
same,"IC50 (µg/mL), pseudovirus neutralization",[9],> 50 µg/mL
same,"IC50 (µg/mL), pseudovirus neutralization",[10],> 50 µg/mL
same,"IC50 (µg/mL), pseudovirus neutralization",[11],> 50 µg/mL
same,"IC50 (µg/mL), pseudovirus neutralization",[12],1.93 µg/mL
same,"IC50, pseudovirus neutralization",[13],> 50 µg/mL
same,"IC50, pseudovirus neutralization",[14],> 50 µg/mL
same,"IC50, pseudovirus neutralization",[15],> 50 µg/mL
PGT-141 (4964_G22; 4993_K13) (antibody),IC50,[17],18 µg/mL
same,IC50,[18],0.049 µg/mL
PGT-142 (4995_E20) (antibody),IC50,[17],12.4 µg/mL
same,IC50,[18],0.044 µg/mL
PGT-143 (4980_N08) (antibody),IC50,[17],18.9 µg/mL
same,IC50,[18],0.076 µg/mL
PGT-144 (4970_K22) (antibody),IC50,[17],> 50 µg/mL
same,IC50,[18],7.78 µg/mL
PGT-145 (4995_P16) (antibody),IC50,[17],0.164 µg/mL
same,IC50,[18],0.056 µg/mL
PGV04 (antibody),"IC50 (µg/mL), pseudovirus neutralization",[19],0.03 µg/mL
same,"IC50 (µg/mL), pseudovirus neutralization",[11],0.027 µg/mL
same,"IC50 (µg/mL), pseudovirus neutralization",[12],5.99 µg/mL
same,"IC50 (µg/mL), pseudovirus neutralization",[20],> 50 µg/mL
same,"IC50 (µg/mL), pseudovirus neutralization",[21],0.78 µg/mL
same,"IC50 (µg/mL), pseudovirus neutralization",[22],0.352 µg/mL
b12 (antibody),"IC50 (µg/ml), pseudovirus neutralization",[23],> 50 µg/mL
same,"IC50 (µg/ml), pseudovirus neutralization",[24],> 50 µg/mL
same,"IC50 (µg/ml), pseudovirus neutralization",[25],0.86 µg/mL
same,"IC50, pseudovirus neutralization",[26],> 50 µg/mL
same,IC50,[27],> 50 µg/mL
same,IC50,[28],> 50 µg/mL
same,IC50,[29],> 50 µg/mL
same,IC50,[30],> 50 µg/mL
same,neutralization IC50,[31],> 50 µg/mL
same,"IC50 (µg/ml), pseudovirus neutralization",[32],> 50 µg/mL
same,"IC50 (µg/ml), pseudovirus neutralization",[33],> 50 µg/mL
same,IC50,[34],> 50 µg/mL
